Results reported in IntAct's records for PubMed 21821029.

Target: aurka_human AURKA (UniProt O14965)
Sequence (O14965 whole entry): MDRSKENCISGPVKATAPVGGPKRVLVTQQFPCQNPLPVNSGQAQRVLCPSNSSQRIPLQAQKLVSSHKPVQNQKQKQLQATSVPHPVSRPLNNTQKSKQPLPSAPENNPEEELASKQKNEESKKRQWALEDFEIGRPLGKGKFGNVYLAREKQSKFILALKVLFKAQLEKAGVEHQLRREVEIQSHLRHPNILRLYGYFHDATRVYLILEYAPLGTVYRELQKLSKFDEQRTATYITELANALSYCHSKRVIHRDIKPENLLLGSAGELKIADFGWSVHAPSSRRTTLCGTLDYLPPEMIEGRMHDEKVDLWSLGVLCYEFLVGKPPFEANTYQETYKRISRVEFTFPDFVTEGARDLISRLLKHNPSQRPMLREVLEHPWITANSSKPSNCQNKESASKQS

**Q.** With “Heterogeneous nuclear ribonucleoprotein K (Homo sapiens), P61978-2 S379A” as the substance, how does the “effect of a mutation on the interaction” value read?
**A.** The value was “disrupting interaction”.
